The source of these data is PMC7737156, “A 3.4-Å cryo-electron microscopy structure of the human coronavirus spike trimer computationally derived from vitrified NL63 virus particles” (QRB Discovery, 2020).

This data set deals with the molecule itself. As to the kind of experiment: cryo-EM structure; single-particle cryo-EM of purified, vitrified HCoV-NL63 virions without chemical fixative; spikes extracted computationally from the micrographs; refined with C3 symmetry (3.4 Å) and without (3.7 Å); virus resuspension buffer 20 mM Tris pH 8.0, 120 mM NaCl, 1 mM EDTA.

B1: HCoV-NL63 coronavirus spike glycoprotein (natural protein)
chain: CNSNANLSMLQLGVPDNSSTIVTGLLPTHWFCANQSTSVYSANGFFYIDVGNHRSAFALHTGYYDANQYYIYVTNEIGLNASVTLKICKFSRNTTFDFLSNASSSFDCIVNLLFTEQLGAPLGITISGETVRLHLYNVTRTFYVPAAYKLTKLSVKCYFNYSCVFSVVNATVTVNVTTHNGRVVNYTVCDDCNGYTDNIFSVQQDGRIPNGFPFNNWFLLTNGSTLVDGVSRLYQPLRLTCLWPVPGLKSSTGFVYFNATGSDVNCNGYQHNSVVDVMRYNLNFSANSLDNLKSGVIVFKTLQYDVLFYCSNSSSGVLDTTIPFGPSSQPYYCFINSTINTTHVSTFVGILPPTVREIVVARTGQFYINGFKYFDLGFIEAVNFNVTTASATDFWTVAFATFVDVLVNVSATNIQNLLYCDSPFEKLQCEHLQFGLQDGFYSANFLDDNVLPETYVALPIYYQHTDINFTATASFGGSCYVCKPHQVNISLNGNTSVCVRTSHFSIRYIYNRVKSGSPGDSSWHIYLKSGTCPFSFSKLNNFQKFKTICFSTVEVPGSCNFPLEATWHYTSYTIVGALYVTWSEGNSITGVPYPVSGIREFSNLVLNNCTKYNIYDYVGTGIIRSSNQSLAGGITYVSNSGNLLGFKNVSTGNIFIVTPCNQPDQVAVYQQSIIGAMTAVNESRYGLQNLLQLPNFYYVSNGGNNCTTAVMTYSNFGICADGSLIPVRPRNSSDNGISAIITANLSIPSNWTTSVQVEYLQITSTPIVVDCATYVCNGNPRCKNLLKQYTSACKTIEDALRLSAHLETNDVSSMLTFDSNAFSLANVTSFGDYNLSSVLPQRNIRSSRIAGRSALEDLLFSKVVTSGLGTVDVDYKSCTKGLSIADLACAQYYNGIMVLPGVADAERMAMYTGSLIGGMVLGGLTSAAAIPFSLALQARLNYVALQTDVLQENQKILAASFNKAINNIVASFSSVNDAITQTAEAIHTVTIALNKIQDVVNQQGSALNHLTSQLRHNFQAISNSIQAIYDRLDSIQADQQVDRLITGRLAALNAFVSQVLNKYTEVRGSRRLAQQKINECVKSQSNRYGFCGNGTHIFSIVNSAPDGLLFLHTVLLPTDYKNVKAWSGICVDGIYGYVLRQPNLVLYSDNGVFRVTSRVMFQPRLPVLSDFVQIYNCNVTFVNISRVELHTVIPDYVDVNKTLQEFAQNLPKYVKPNFDLTPFNLTYLNLSSELKQLEAKTASLFQTTVELQGLIDQINSTYVDLKLLNRFENYIKWPWWVWLIISVVFVVLLSLLVFCCLSTGCCGCCNCLTSSMRGCCDCGSTKLPYYEFEKVHVQ
modifications: glycosylated; N-linked glycan density at Asn24 and Asn203 and O-linked glycan density at Ser496 newly seen here, besides the glycan sites seen before in EMD-8331
notes: Spike glycoprotein of human coronavirus NL63, membrane-anchored on native virions, pre-fusion state; model built from PDB 5SZS with residues 883-889 and 993-1000 added; Native spike on the virion, no stabilising mutations and no tags; the cited ectodomain structure PDB 5SZS is another construct (purified ectodomain made in insect cells); also called S trimer; HCoV-NL63 spike (S) trimer; source: …
By stoichiometry N is commonly meant a count of units in the complex or per binding partner. Turning to B1, the “stoichiometry N” value is 3.
